Drawing on patent publication US20120321699A1 (published 2012), this text covers Kd for one molecule.

This experiment deals with HV00044 (6240 TZ5 140C) (HIV-1). The experiment is described as follows: SPR. On the technique in general: Surface plasmon resonance follows binding to a sensor surface in real time, without labels.

B1: CH01 (antibody, V domains shown)
VH: EVQLVESGANVVRPGGSLRLSCKASGFIFENFGFSWVRQAPGKGLQWVAGLNWNGGDTRYADSVKGRFRMSRDNSRNFVYLDMDKVGVDDTAFYYCARGTDYTIDDAGIHYQGSGTFWYFDLWGRGTLVSVSS
VL: EIVLTQSPGTLSLSPGERATLSCRASHNVHPKYFAWYQQKPGQSPRLLIYGGSTRAAGIPGKFSGSGSGTDFTLTISRVDPEDFAVYYCQQYGGSPYTFGQGTKVEI
As a reminder, the Kd is the concentration at which binding is half-saturated. B1: the affinity, expressed as Kd, was 300 nM.
